For test [1], the target named is ORF74-ST/A (Kaposi's sarcoma-associated herpesvirus (KSHV)) (UniProt Q98146).
For test [2] the target is unchanged. The experiment in a line: radioligand binding; whole transfected HEK293T cells, 100 pM ^125I-CXCL10 with increasing unlabeled CXCL10, 3h at 4°C, 50 mM HEPES pH 7.4, 1 mM CaCl2, 5 mM MgCl2, 0.5% BSA; washes with 0.5 M NaCl; Ki from IC50 by Cheng and Prusoff.
The next test concerns the target ^125I-CXCL8. The experiment in a line: radioligand binding (125I-CXCL8 homologous competition) on intact HEK293T cells. Particulars: point at the lowest unlabeled CXCL8 concentration, log [CXCL8] = -11 M; parent: est. 100; read off a plot.

Bounds are passed on as bounds.

Take CXCL8 (ligand): the PLC activation (InsP accumulation) in HEK293T, pEC50 in test [1] is above 7.

As to “CXCL10 (from UniProt P02778 22-98) (ligand)”, the inhibition of constitutive PLC activation (InsP accumulation) in HEK293T, pEC50 in test [1] stood at 8. In addition, the pKi in test [2] is 8.4.

Take “WT-ORF74 (from UniProt Q98146) S315A; S319A; S331A; S335A; S338A; T341A; T342A”: in the test with ^125I-CXCL8, the percent of parent (% of specific binding of WT-ORF74) was 3.
